The source of these data is the supplement of paper PMC7877785.

± gives the uncertainty stated by the source.

The nature of this data set: self-splicing fitness, log relative to wild type (ln ratio); higher = more splicing; Tetrahymena group I intron in knt gene, E. coli kanamycin selection, DiMSum; sequences stand for … in CUCUCU…GGAGGGAAAAGUUAUCAGGCAUGCACCUGGUAGCUAGUCUUUAAACCAAUAGAUUGCAUCGGUUUAAAAGGCAAGACCGUCAAAUUGCGGGAAAGGGGUCAACAGCCGUUCAGUACCAAGUCUCAGGGGAAACUUUGAGAUGGCCUUGCAAAGGGUAUGGUAAUAAGCUGACGGACAUGGUCCUAACCACGCAGCCAAGUCCUAAGUCAACAGAUCUUCUGUUGAUAUGGAUGCAGUUCACAGACUAAAUGUCGGUCGGGGAAGAUGUAUUCUUCUCAUAAGAUAUAGUCGGACCUCUCCUUAAUGGGAGCUAGCGGAUGAAGUGAUGCAACACUGGAGCCGCUGGGAACUAAUUUGUAUGCGAAAGUAUAUUGAUUAGUUUUGGAGUACUCGUGGUCG
In a few lines: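 A randomised library covering all eight P1ex-region intron nucleotides was built with the intron in the knt kanamycin-resistance gene on pET-22b(+) and held in E. coli BL21(DE3). Cells were grown overnight at 37°C or 30°C on LB agar, with or without 25 μg/mL kanamycin, plus 100 μg/mL carbenicillin, 50 μM IPTG and 0.2% rhamnose, and pooled colonies were amplicon-sequenced on an Illumina HiSeq 2500. DiMSum fitness is the error-weighted combination of wild-type-normalised replicate fold changes, kanamycin versus none.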

As to CGCAAGCAAUAUUACGGCAG, the “self-splicing fitness (ln)” value by setting is: (30 °C) -0.448 ± 0.072; (37 °C) -0.305 ± 0.1.
As to CGCAAGCAAUAUUACGGUAA, the “self-splicing fitness (ln)” value (30 °C) is -3.47 ± 0.16 and the “self-splicing fitness (ln)” value (37 °C) is -1.67 ± 0.1.
As for CGCAAGCAAUAUUACGGUCU, the “self-splicing fitness (ln)” value is -0.969 ± 0.066 (30 °C) and -0.898 ± 0.081 (37 °C).
For CGCAAGCAAUAUUACGUACG, in that order: -2.03 ± 0.086 and -0.768 ± 0.1.
For CGCAAGCAAUAUUACGUGAA, in that order: -2.5 ± 0.11 and -1.08 ± 0.11.
In the same order, the values of CGCAAGCAAUAUUACGUGAU are -4.09 ± 0.16 and -1.63 ± 0.11.
CGCAAGCAAUAUUACGUGUA: the “self-splicing fitness (ln)” value is -2.88 ± 0.13 (30 °C) and -0.494 ± 0.1 (37 °C).
For CGCAAGCAAUAUUACGUUAG, in that order: -1.15 ± 0.073 and -1.42 ± 0.1.
In the same order, the values of CGCCAGCAAUAUUACGAAUU are -4.49 ± 0.27 and -1.46 ± 0.17.
For CGCCAGCAAUAUUACGAGAU, in that order: -3.69 ± 0.18 and -2.04 ± 0.17.
In the case of CGCCAGCAAUAUUACGAUAG, the “self-splicing fitness (ln)” value reads like this: (30 °C) 0.428 ± 0.062; (37 °C) 0.155 ± 0.081.
In the same order, the values of CGCCAGCAAUAUUACGCAAU are -4.2 ± 0.21 and -2.63 ± 0.22.
As to CGCCAGCAAUAUUACGCAUC, the “self-splicing fitness (ln)” value (30 °C) was -3.71 ± 0.16 and the “self-splicing fitness (ln)” value (37 °C) is -2.74 ± 0.17.
For CGCCAGCAAUAUUACGCAUU, in that order: -3.11 ± 0.25 and -2.01 ± 0.18.
In the case of CGCCAGCAAUAUUACGCCAA, the “self-splicing fitness (ln)” value is, setting by setting: (30 °C) -1.59 ± 0.23; (37 °C) -2.02 ± 0.46.
For the sequence CGCCAGCAAUAUUACGCCAC, for the setting “37 °C”, the “self-splicing fitness (ln)” value was -1.48 ± 0.2.
As for CGCCAGCAAUAUUACGCCGU, the “self-splicing fitness (ln)” value (30 °C) was -2.59 ± 0.15 and the “self-splicing fitness (ln)” value (37 °C) is -1.71 ± 0.17.
In the same order, the values of CGCCAGCAAUAUUACGCGCU are -3.54 ± 0.15 and -2.52 ± 0.15.
For CGCCAGCAAUAUUACGCUGC, in that order: -4.16 ± 0.41 and -2.24 ± 0.28.
As to CGCCAGCAAUAUUACGGAAU, the “self-splicing fitness (ln)” value was -2.95 ± 0.2 (30 °C) and -2.05 ± 0.21 (37 °C).
Regarding CGCCAGCAAUAUUACGGAGA, the “self-splicing fitness (ln)” value (37 °C) was -2.4 ± 0.24.
CGCCAGCAAUAUUACGGCUU: the “self-splicing fitness (ln)” value is -0.48 ± 0.07 (30 °C) and -0.347 ± 0.08 (37 °C).
With CGCCAGCAAUAUUACGGGAC, under “37 °C”, the “self-splicing fitness (ln)” value is -2.48 ± 0.24.
With CGCCAGCAAUAUUACGGUAG, the “self-splicing fitness (ln)” value (30 °C) was -2.51 ± 0.11 and the “self-splicing fitness (ln)” value (37 °C) is -2.03 ± 0.18.
For CGCCAGCAAUAUUACGGUUU, in that order: -0.936 ± 0.056 and -0.589 ± 0.059.
For CGCCAGCAAUAUUACGUGCU, in that order: -3.27 ± 0.2 and -3.23 ± 0.33.
For CGCCAGCAAUAUUACGUGUG, in that order: -2.82 ± 0.094 and -1.81 ± 0.11.
With CGCCAGCAAUAUUACGUUAG, the “self-splicing fitness (ln)” value is -0.475 ± 0.074 (30 °C) and 0.385 ± 0.099 (37 °C).
In the same order, the values of CGCCAGCAAUAUUACGUUCA are -2.8 ± 0.12 and -1.86 ± 0.11.
Consider CGCCAGCAAUAUUACGUUGG, for which the “self-splicing fitness (ln)” value (30 °C) was -2.64 ± 0.14 and the “self-splicing fitness (ln)” value (37 °C) was -2.68 ± 0.24.
As to CGCGAGCAAUAUUACGAAGG, the “self-splicing fitness (ln)” value by setting is: (30 °C) -2.81 ± 0.24; (37 °C) -2.64 ± 0.27.
On to CGCGAGCAAUAUUACGAAUU, for which the “self-splicing fitness (ln)” value reads like this: (30 °C) -3.16 ± 0.27; (37 °C) -2.03 ± 0.21.
As for CGCGAGCAAUAUUACGACUU, the “self-splicing fitness (ln)” value (37 °C) is -1.2 ± 0.47.
For the sequence CGCGAGCAAUAUUACGAUAG, the “self-splicing fitness (ln)” value is -1.05 ± 0.13 (30 °C) and -0.593 ± 0.16 (37 °C).
For CGCGAGCAAUAUUACGCAUU, in that order: -2.71 ± 0.18 and -3.29 ± 0.35.
In the same order, the values of CGCGAGCAAUAUUACGCGCC are -1.37 ± 0.28 and -1.66 ± 0.48.
Consider CGCGAGCAAUAUUACGCGCU, for which, under “37 °C”, the “self-splicing fitness (ln)” value is -1.67 ± 0.32.
Consider CGCGAGCAAUAUUACGGAAC, for which the “self-splicing fitness (ln)” value (30 °C) was -3.86 ± 0.22 and the “self-splicing fitness (ln)” value (37 °C) was -2.43 ± 0.29.
In the same order, the values of CGCGAGCAAUAUUACGGAGG are -3.29 ± 0.22 and -1.41 ± 0.19.
For CGCGAGCAAUAUUACGGGAA, in that order: -3.74 ± 0.27 and -2.4 ± 0.29.
For CGCGAGCAAUAUUACGGGCU, in that order: -3.12 ± 0.21 and -1.17 ± 0.24.
Take CGCGAGCAAUAUUACGGGUU: the “self-splicing fitness (ln)” value by setting is: (30 °C) -3.62 ± 0.2; (37 °C) -2.44 ± 0.2.
In the same order, the values of CGCGAGCAAUAUUACGGUAU are -3.65 ± 0.34 and -2.81 ± 0.34.
In the same order, the values of CGCGAGCAAUAUUACGUCAU are -2.66 ± 0.23 and -1.97 ± 0.33.
As for CGCGAGCAAUAUUACGUUCU, the “self-splicing fitness (ln)” value (30 °C) is -3.71 ± 0.28 and the “self-splicing fitness (ln)” value (37 °C) is -2.76 ± 0.38.
For CGCUAGCAAUAUUACGAAGC, the “self-splicing fitness (ln)” value (30 °C) is -1.15 ± 0.37.
Consider CGCUAGCAAUAUUACGACCU, for which the “self-splicing fitness (ln)” value (30 °C) was -1.72 ± 0.19 and the “self-splicing fitness (ln)” value (37 °C) was -1.62 ± 0.18.
As for CGCUAGCAAUAUUACGACGC, for the setting “37 °C”, the “self-splicing fitness (ln)” value was -1.92 ± 0.17.
Take CGCUAGCAAUAUUACGAGCA: the “self-splicing fitness (ln)” value by setting is: (30 °C) -0.28 ± 0.098; (37 °C) 0.344 ± 0.12.
As to CGCUAGCAAUAUUACGAGCU, the “self-splicing fitness (ln)” value (30 °C) is -0.561 ± 0.11 and the “self-splicing fitness (ln)” value (37 °C) is -0.7 ± 0.11.
In the case of CGCUAGCAAUAUUACGAGGC, the “self-splicing fitness (ln)” value is -3.54 ± 0.2 (30 °C) and -2.95 ± 0.23 (37 °C).
For CGCUAGCAAUAUUACGAUUA, the “self-splicing fitness (ln)” value by setting is: (30 °C) -3.34 ± 0.35; (37 °C) -2.73 ± 0.31.
As to CGCUAGCAAUAUUACGCAAG, the “self-splicing fitness (ln)” value is, setting by setting: (30 °C) -3.76 ± 0.32; (37 °C) -2.49 ± 0.33.
In the same order, the values of CGCUAGCAAUAUUACGCAGA are -3.28 ± 0.45 and -2.38 ± 0.36.
For CGCUAGCAAUAUUACGCCCA, in that order: -0.642 ± 0.11 and -0.0477 ± 0.14.
For CGCUAGCAAUAUUACGGAAA, in that order: -2.34 ± 0.41 and -1.49 ± 0.33.
For CGCUAGCAAUAUUACGGACG, the “self-splicing fitness (ln)” value by setting is: (30 °C) -2.4 ± 0.17; (37 °C) -0.45 ± 0.17.
In the same order, the values of CGCUAGCAAUAUUACGGAUU are -3 ± 0.23 and -1.52 ± 0.2.
For CGCUAGCAAUAUUACGGCAA, in that order: -0.889 ± 0.099 and -0.0297 ± 0.11.
For the sequence CGCUAGCAAUAUUACGGCGA, the “self-splicing fitness (ln)” value is, setting by setting: (30 °C) -2.76 ± 0.28; (37 °C) -2.3 ± 0.24.
For CGCUAGCAAUAUUACGGCGU, in that order: -4.23 ± 0.42 and -2.71 ± 0.21.
For CGCUAGCAAUAUUACGGGGU, in that order: -3.83 ± 0.21 and -3.12 ± 0.21.
For CGCUAGCAAUAUUACGGGUU, in that order: -2.73 ± 0.082 and -2.04 ± 0.11.
In the case of CGCUAGCAAUAUUACGGUCG, the “self-splicing fitness (ln)” value reads like this: (30 °C) -2.53 ± 0.1; (37 °C) -2.03 ± 0.13.
In the same order, the values of CGCUAGCAAUAUUACGUAUA are -3.36 ± 0.15 and -2.55 ± 0.16.
On to CGCUAGCAAUAUUACGUCCC, for which the “self-splicing fitness (ln)” value by setting is: (30 °C) -2.63 ± 0.16; (37 °C) -1.54 ± 0.19.
As for CGCUAGCAAUAUUACGUGAG, the “self-splicing fitness (ln)” value by setting is: (30 °C) -3.88 ± 0.33; (37 °C) -1.64 ± 0.14.
In the same order, the values of CGCUAGCAAUAUUACGUGAU are -2.34 ± 0.12 and -3.44 ± 0.25.
Turning to CGCUAGCAAUAUUACGUGGA, the “self-splicing fitness (ln)” value by setting is: (30 °C) -3.16 ± 0.2; (37 °C) -2.33 ± 0.18.
In the same order, the values of CGCUAGCAAUAUUACGUGGC are -2.89 ± 0.2 and -2.72 ± 0.2.
In the same order, the values of CGCUAGCAAUAUUACGUGUG are -4.15 ± 0.27 and -3.12 ± 0.19.
For CGCUAGCAAUAUUACGUUAG, in that order: -3.47 ± 0.18 and -2.89 ± 0.24.
Consider CGCUAGCAAUAUUACGUUGA, for which the “self-splicing fitness (ln)” value was -3.06 ± 0.17 (30 °C) and -2.38 ± 0.14 (37 °C).
In the same order, the values of CGCUAGCAAUAUUACGUUGC are -3.3 ± 0.33 and -2.98 ± 0.29.
In the same order, the values of CGGAAGCAAUAUUACGACUC are -0.372 ± 0.081 and -1.1 ± 0.08.
On to CGGAAGCAAUAUUACGAGUA, for which the “self-splicing fitness (ln)” value (37 °C) was -2.86 ± 0.29.
Still for that read-out and setting: under CGGAAGCAAUAUUACGAUGC stands -2.78 ± 0.36.
Regarding CGGAAGCAAUAUUACGAUUG, the “self-splicing fitness (ln)” value by setting is: (30 °C) -0.86 ± 0.073; (37 °C) -0.25 ± 0.095.
